Source: the supplement of paper PMC9170038

What follows are sequences tested on MS2 coat protein (assay: apparent KD of MS2 coat protein, switch ON state; designed switch direction (-1 OFF switch, 1 ON switch): 1; higher = weaker reporter binding). Settings: FMN input: 0 or 200 uM; Eterna round: R93 (includes R88 designs).
Outline: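 Apparent KD is reported per design as the median of normalised binding-curve fits across its clusters. The RNA switches were made by on-chip transcription from Illumina sequencing clusters. SNAP-549-labelled MS2 coat protein was then added in twofold steps (0.7 or 1.5 nM to 3 µM; 0.8–1.5 h to 10–20 min per step) in 100 mM Tris-HCl pH 7.5, 80 mM KCl, 4 mM MgCl2, without or with constant ligand.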

Row | Sequence | apparent KD of MS2 coat protein [nM]
1 | AAAAAACAUGAGGAUCACCCAUGUGCAAAAUUCGCAGGAUAUCCCUUUUUUAAAUGGGAGGGAGAAGGGUGUAAAA [Nob's Hobby 18 - Jieux - Same State 1] | 27.1
2 | AACAAUCUAUCUGAGGAUAUCAUUUCAAAGACAUGAGGAUCACCCAUGUCCAGGAAAACUGGAAAUGAGAAGGCAGAUAGAUUGA [SS2: 1106] | 11.7
3 | UAGGGAACAGGGUAGGAUAUGCAUGGUCGUACAUGAGGAUCACCCAUGUAGCCUAGAAAAUAAAUGCAGAAGGACCAAAAGAAAA [Ononmaesra] | 16.5
4 | ACUAUACAUGAGGAUCACCCAUGUUAGCUGGGCGAAGGAUAUGUAGAUGGAUAAAAAUAUGCAGAAGGUCGAUAAC [JR_SS001_Sub210] | 39.5
5 | AAGAAACAUGAGGAUCACCCAUGUCAAGAGAGACUAGGAUAUCUGAAUUAAUUAAAUUAAGGAGAAGGAGUGAAAA [71%, Same state of confusion2, 2] | 35.9
6 | GAACCACAUGAGGAUCACCCAUGUCUAAGAAAUUAAGGAUAUGCACAAAAGGAAAUAACUGCAGAAGGUAAACGAA [Redo] | 25.1
7 | GGGAGGAAGAGAGAGGAUAUCCAAAGGAAAACAUGAGGAUCACCCAUGUAAAAGGUAGGAAAUUGGGAGAAGGCUCAAAAGAGGC [salish99-ss2-042] | 19.4
8 | AGAAUAAAAACAGAGGAUAUCCAAAAGAAAACAUGAGGAUCACCCAUGUAAAAGAAAAUAAAAUGGGAGAAGGCUGAAAUAAAGA [Mat - Same State 2 - Eli mod - D97] | 14.9
9 | GCACCACAUGAGGAUCACCCAUGUAAAACGUAGCAAGGAUAUGGGCACGGAUAAUUCCGAUCAGAAGGUGUAACGC [Gemaditera] | 105
10 | AAACCACAUGAGGAUCACCCAUGUGAAAUACACAUAGGAUAUGCGAAAAGAAACAAAGAAGCAGAAGGGUGAAAAA [75%, Ex sub1, 17] | 35.4
11 | UAACUACAUGAGGAUCACCCAUGUCAAAUAAAUCGAGGAUAUGGGACGCAAAACGUCUGACCAGAAGGCGAAACAA [Maquriceri] | 27.3
12 | CGCAGGAAGAGAGAGGAUAUCCAAAGGAAAACAUGAGGAUCACCCAUGUAAAAGGUAGGAAAUUGGGAGAAGGCUCAAGAGAGAG [salish99-ss2-100] | 34.3
13 | AAGAUACAUGAGGAUCACCCAUGUCACCUCACACGAGGAUAUCUGUGCAGUACUCAGUACGGAGAAGGCGUGGAAA [Mat - Same State 1 - Hyphema mod - D98] | 25
14 | AUAAAAGAAGCGAAGGAUAUCCAAAGGACCACAUGAGGAUCACCCAUGUAAAGAAAGAAAAAAUGGGAGAAGGUCGCAAAGAAUA [73%, More Fisker Same State 2, D3, 7] | 74.9
15 | AACAUACAUGAGGAUCACCCAUGUUCCGGCAGGUCAGGAUAUGUAUCGAAAGAGUUAUAAACAGAAGGGACAUAAA [JR_SS001_Sub010] | 32.4
16 | UAGAGGAAGAGAGAGGAUAUCCAAAGGAAAACAUGAGGAUCACCCAUGUAAAAGGUAGGAAAUUGGGAGAAGGCUCAAGAGAGAG [salish99-ss2-062] | 30.9
17 | AAAGACAUGGUGCAGGAUAUAUUAAUAGUCACAUGAGGAUCACCCAUGUUCAUAUAUAUGAACGAGUAGAAGGGCGAUGAAAAAA [SameState2 Malc#6] | 98
18 | AGAAAUAAAAGCUAGGAUAUCCAAAAGAAAACAUGAGGAUCACCCAUGUGAAAGAAAAUAAAAUGGGAGAAGGAGCAAAAUAAGA [Topaz 51] | 17.5
19 | AUAACACAUGAGGAUCACCCAUGUAGAUCCACGUCAGGAUAUGCAAAGAAAAUAAACAAAGCAGAAGGGACAAUAA [SS 1 Tesla 1] | 47.3
20 | AAUAGACAUGAGGAUCACCCAUGUAGAAUUAUGGGAGGAUAUACAAAGACGAGAGUCAGAGUAGAAGGCCUAGGAA [salish99-ss1-148] | 23.6
21 | CGGAGACAUGAGGAUCACCCAUGUGAGAAGAGGCGAGGAUAUCGAAAGAAAGAAGAGAAACGAGAAGGCGCGAGCC [salish99-SS1-080(!)] | 32.1
22 | AACAAUCUAUCUGAGGAUAUCAUGUAAAAGACAUGAGGAUCACCCAUGUAGCAGGAAACUGCACAUGAGAAGGCAGAUAGAUUGA [SS2: 1124] | 15.9

Row | Sequence | apparent KD of MS2 coat protein [nM]
23 | GAAAAACAUGAGGAUCACCCAUGUAGAAAUAUGGAAGGAUAUACAAAGACGAAAGUCAAAGUAGAAGGUCUAAAAG [Mat - Same State 1 - Eli mod - D13] | 15.5
24 | AUUCCAACUAGUCAGGAUAUCAGGCGUAAGACAUGAGGAUCACCCAUGUACUUAGUACAAGUAACUGAGAAGGGACAGGGUGUAA [JR_SS002_Sub408] | 20.3
25 | AACAAUCUAUCUGAGGAUAUCAAGUCAAAGACAUGAGGAUCACCCAUGUGCAGGAAAACUGCACUUGAGAAGGCAGAUAGAUUGA [SS2: 1109] | 12.3
26 | AAGAGACAUGAGGAUCACCCAUGUAGGAUUAUGGGAGGAUAUACAAAGACGAGAGUCAGAGUAGAAGGCCUAGGAA [salish99-ss1-129(!)] | 24.5
27 | AAAAGACAUGAGGAUCACCCAUGUCAAAACGUGGGAGGAUAUGCAUGGAAAACAUGCUGUGCAGAAGGCCCGUGUC [SS1 - 21] | 27.5
28 | AUAAAACAUGAGGAUCACCCAUGUAGACACGUGGGAGGAUAUACUAGAUCGAAAGAUCUAGUAGAAGGCCUUCGUA [Mat - Same State 1 - JL mod - D94] | 23.7
29 | AGAAAUAAAAGAGAGGAUAUCCUAAAGAAAACAUGAGGAUCACCCAUGUAAAAGAAAAUAAAAUGGGAGAAGGCUCAAAAUAAAG [80%, More Helter Skelter 2] | 15.4
30 | CGAAAGGAGAGAGAGGAUAUCCAAAGGAAAACAUGAGGAUCACCCAUGUAGAAGGUAGGAGAUUGGGAGAAGGCUCAAGAUAGAG [salish99-ss2-145] | 29.5
31 | GGAAAUAACAGAGAGGAUAUCCAAAGGAAAACAUGAGGAUCACCCAUGUAAAAGGAAGGAAAUUGGGAGAAGGCUCAAAAUAGAA [salish99-ss2-019] | 15.1
32 | GGGAGACAUGAGGAUCACCCAUGUGAAAACGUGUCAGGAUAUGUAUGGAAACCAUACUGUACAGAAGGGACUUGUC [Quintus Rammius Martialis] | 54.8
33 | AAAUAACAUGAGGAUCACCCAUGUUGCAGCGGUUGAGGAUAUGUGGGUGAAAAUAGCAUGGCAGAAGGCGAGUGUA [SameState1 Malc#26] | 71.3
34 | AAGAAACAUGAGGAUCACCCAUGUGGAAAUAUGGGAGGAUAUACAAGGACGUAAGUCAAGGUAGAAGGCCUAAGAA [Mat - Same State 1 - Meechl mod - D138] | 21.5
35 | AGGAAACAUGAGGAUCACCCAUGUAAAAGGUGGUUAGGAUAUGCAAAAAGAAAAAGAAAAGCAGAAGGGACAAGAA [mod of top voted: #1] | 351
36 | AAAAAACAUGAGGAUCACCCAUGUAAAAAAAACGCAGGAUAUCCCUUUUUUAAAUGGGAGGGAGAAGGGUGAAAAA [Nob's Hobby 13 - Jieux - Same State 1] | 22.4
37 | UAAUAAUAAACCAAGGAUAUGGAGUUUCCAACAUGAGGAUCACCCAUGUUUAGCAUGAAAUCGAUCCAGAAGGUGGAGCCAAAUA [JR_SS002_Sub1005] | 54.1
38 | CUUAGACAUGAGGAUCACCCAUGUCGAACAAACAAAGGAUAUGGGAGCCGAAGAAGGCUAUUAGAAGGUUGCAAAA [Isesinbe] | 26.4
39 | GGGAAGAACAGAGAGGAUAUCCAAAGGAAAACAUGAGGAUCACCCAUGUAAAAGGAAGGAAAUUGGGAGAAGGCUCAAAAGAGAA [salish99-ss2-023] | 32.5
40 | AAGAAACAUGAGGAUCACCCAUGUAGAAAUAUGGGAGGAUAUACAAGGACGAAAGUCAAGGUAGAAGGCCUAAGAA [Mat - Same State 1 - Meechl mod - D132] | 20.7
41 | AAUAUACAUGAGGAUCACCCAUGUUUUAAUAACUGAGGAUAUACGGGUGAAAACAGCAUAGUAGAAGGCAGAUAUA [SameState1 Malc#6] | 37.8
42 | CGUGAACAUGAGGAUCACCCAUGUGAAAAACAUAGAGGAUAUGUCACAUGAGUGUAAAAGACAGAAGGCUAUCGUG [Mod 1 of Round 1 starryjess' Mod pf Nando] | 98
43 | GAAAAACAUGAGGAUCACCCAUGUGACAACAUGGGAGGAUAUACGUGGACGAUAGUCAAAGUAGAAGGCCUAAAAG [Garnet 64] | 71.7
